Experimental data reported in paper PMC6474823 (Molecular cell, 2019).

Assays:
[1] = target: Src^CD WT (catalytic domain of Src, residues 261-536) (human, UniProt P12931 261-536); test: pull-down
[2] = target: Src^FL WT (full-length Src, residues 1-536, non-phosphorylated, lacking an N-terminal myristoyl group) (human, UniProt P12931 1-536); test: pull-down

## MGSNKSKPKDASQRRRSLLPETG (domain or fragment, human) [SH4^SNAP WT (residues 1-18 of Src fused to the N-terminus of SNAP-tag through a LPETG linker)]
[1]
  binding result: binds
[2]
  binding result: binds
